Reference: paper PMC5349888, “Thyroid transcription factor FOXE1 interacts with ETS factor ELK1 to co-regulate TERT”

T1: ELK1-HA (human, UniProt P19419 1-428)
T1 sequence: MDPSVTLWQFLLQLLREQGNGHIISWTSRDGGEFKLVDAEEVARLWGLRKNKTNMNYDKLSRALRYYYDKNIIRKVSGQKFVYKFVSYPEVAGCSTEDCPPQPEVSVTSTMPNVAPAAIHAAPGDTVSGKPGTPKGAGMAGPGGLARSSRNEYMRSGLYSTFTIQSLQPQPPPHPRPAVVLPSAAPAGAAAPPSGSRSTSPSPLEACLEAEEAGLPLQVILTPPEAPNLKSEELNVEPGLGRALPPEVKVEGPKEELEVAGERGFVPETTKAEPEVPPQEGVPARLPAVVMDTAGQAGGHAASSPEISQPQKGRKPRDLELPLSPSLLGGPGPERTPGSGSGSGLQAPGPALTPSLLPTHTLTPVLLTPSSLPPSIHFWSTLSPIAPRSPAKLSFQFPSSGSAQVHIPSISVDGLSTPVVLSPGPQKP

T2: FOXE1-Flag;ELK1-HA (human;human, UniProt O00358;P19419 1-373;1-428, |)
T2 sequence 1: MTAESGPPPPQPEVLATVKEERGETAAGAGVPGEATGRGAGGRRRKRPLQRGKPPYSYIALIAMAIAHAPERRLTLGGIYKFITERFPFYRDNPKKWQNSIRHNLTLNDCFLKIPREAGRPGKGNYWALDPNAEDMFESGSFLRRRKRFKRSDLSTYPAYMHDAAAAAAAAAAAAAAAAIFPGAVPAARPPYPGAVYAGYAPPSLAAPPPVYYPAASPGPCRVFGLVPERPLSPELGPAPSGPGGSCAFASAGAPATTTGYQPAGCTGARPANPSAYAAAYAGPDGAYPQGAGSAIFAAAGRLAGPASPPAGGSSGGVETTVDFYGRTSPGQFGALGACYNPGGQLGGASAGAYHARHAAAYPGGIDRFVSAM
T2 sequence 2: T1 sequence

T3: FOXE1-Flag (human, UniProt O00358 1-373)
T3 sequence: T2 sequence 1

B1: TERT promoter probe (dsDNA)
DNA 1: CCCCGCCCCGTCCCGACCCCTCCCGGGTCCCCGGCCCAGCCCCCTCCGGGCCCTCCCAGCCCCTCCCCTTCCTTTCCGCGGCCCC
DNA 2: GGGGCCGCGGAAAGGAAGGGGAGGGGCTGGGAGGGCCCGGAGGGGGCTGGGCCGGGGACCCGGGAGGGGTCGGGACGGGGCGGGG
B2: TG promoter K region probe (dsDNA)
DNA 1: GAGGGAGTTCCTGTGACTAGCAGAGAAAACAAAGTGAGCCAC
DNA 2: GTGGCTCACTTTGTTTTCTCTGCTAGTCACAGGAACTCCCTC

Tests used:
[1] = molecular target: T1, ELK1-HA; assay: EMSA; ELK1 alone; EMSA: 1 ug protein, 150 mM KCl, 50 ng/uL poly(dI-dC), 10% glycerol, 10 mM Tris pH 7.5, room temperature 30 min; 6% polyacrylamide gel; conditions: protein: recombinant; tags: HA (pCMV-HA-N); label: 5' biotin; blunt
[2] = molecular target: T2, FOXE1-Flag;ELK1-HA; assay: EMSA; FOXE1 shifts only with ELK1 present; EMSA: 1 ug protein, 150 mM KCl, 50 ng/uL poly(dI-dC), 10% glycerol, 10 mM Tris pH 7.5, room temperature 30 min; 6% polyacrylamide gel; conditions: protein: recombinant;recombinant; tags: 3xFlag (p3XFlag-CMV-7.1);HA (pCMV-HA-N); copies: 1;1; label: 5' biotin; blunt
[3] = molecular target: T3, FOXE1-Flag; assay: EMSA; positive control; EMSA: 1 ug protein, 150 mM KCl, 50 ng/uL poly(dI-dC), 10% glycerol, 10 mM Tris pH 7.5, room temperature 30 min; 6% polyacrylamide gel; conditions: protein: recombinant; tags: 3xFlag (p3XFlag-CMV-7.1); label: 5' biotin; blunt

Binder	binding result [1]	binding result [2]	binding result [3]
B1	binds	binds	–
B2	–	–	binds
